The term stoichiometry N denotes a count of units in the complex or per binding partner.

Test [1] deals with recombinant HAdV-C5 fibre knob protein (human adenovirus type 5 (HAdV-C5)).
Test [2] addresses recombinant HAdV-D49 fibre knob protein (human adenovirus type 49 (HAdV-D49)). As to the kind of experiment: gel electrophoresis with Coomassie staining, with or without denaturing agent; 5 µg and 10 µg of recombinant knob, with or without treatment with a denaturing agent, stained with Coomassie; validation of knob trimerisation.

Regarding “recombinant HAdV-C5 fibre knob protein (domain or fragment)”, the stoichiometry N in test [1] came to 3. Turning to “recombinant HAdV-D49 fibre knob protein (domain or fragment)”, the stoichiometry N in test [2] worked out at 3.
